{"source": "paper PMC9482650", "about": "“Quantitative fragmentomics allow affinity mapping of interactomes” (Nature Communications, 2022)", "data": [{"molecular_target": "T1, DLG3_1, Q92796", "T1 sequence (Q92796 125-227, limits assumed, looked up)": "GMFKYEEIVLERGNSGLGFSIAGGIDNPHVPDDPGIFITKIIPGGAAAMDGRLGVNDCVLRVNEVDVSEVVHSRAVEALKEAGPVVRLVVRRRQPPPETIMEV", "assay": "holdup assay", "design": "key: below the threshold = too weak to quantify, mostly under pKd 3.1 to 4", "details": "plain residues with an end cap or a label only (N-terminal biotin on a linker: ado-ado)", "values": [{"binder": "SGSLKLMTTV", "note": "[DACT1, Q9NYF0]", "pKd": 4.45}]}, {"molecular_target": "DLG1_1, Q12959", "assay": "holdup assay", "design": "key: below the threshold = too weak to quantify, mostly under pKd 3.1 to 4", "details": "plain residues with an end cap or a label only (N-terminal biotin on a linker: ado-ado)", "values": [{"binder": "SGSLKLMTTV", "note": "[DACT1, Q9NYF0]", "pKd": 4.92}]}, {"molecular_target": "T2, DLG3_2, Q92796", "T2 sequence (Q92796 221-321, limits assumed, looked up)": "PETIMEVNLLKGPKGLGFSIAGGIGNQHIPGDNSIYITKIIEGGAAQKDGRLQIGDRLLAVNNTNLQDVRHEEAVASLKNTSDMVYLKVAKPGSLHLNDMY", "assay": "holdup assay", "design": "key: below the threshold = too weak to quantify, mostly under pKd 3.1 to 4", "details": "plain residues with an end cap or a label only (N-terminal biotin on a linker: ado-ado)", "values": [{"binder": "SGSLKLMTTV", "note": "[DACT1, Q9NYF0]", "pKd": 5.12}]}, {"molecular_target": "MAGI2_2, Q86UL8", "sequence (Q86UL8 410-522)": "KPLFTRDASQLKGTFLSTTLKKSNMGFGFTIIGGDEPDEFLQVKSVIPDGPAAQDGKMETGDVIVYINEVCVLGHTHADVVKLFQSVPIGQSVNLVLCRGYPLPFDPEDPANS", "assay": "holdup assay", "design": "key: below the threshold = too weak to quantify, mostly under pKd 3.1 to 4", "details": "plain residues with an end cap or a label only (N-terminal biotin on a linker: ado-ado)", "values": [{"binder": "SGSLKLMTTV", "note": "[DACT1, Q9NYF0]", "pKd": 5.28}]}, {"molecular_target": "SCRIB_3, Q14160", "sequence (Q14160 999-1103)": "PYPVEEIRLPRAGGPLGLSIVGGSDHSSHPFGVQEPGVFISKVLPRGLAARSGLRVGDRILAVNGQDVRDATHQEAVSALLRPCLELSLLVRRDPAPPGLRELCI", "assay": "holdup assay", "design": "key: below the threshold = too weak to quantify, mostly under pKd 3.1 to 4", "details": "plain residues with an end cap or a label only (N-terminal biotin on a linker: ado-ado)", "values": [{"binder": "SGSLKLMTTV", "note": "[DACT1, Q9NYF0]", "pKd": 3.59}]}, {"molecular_target": "LDB3, O75112", "sequence (O75112 1-94)": "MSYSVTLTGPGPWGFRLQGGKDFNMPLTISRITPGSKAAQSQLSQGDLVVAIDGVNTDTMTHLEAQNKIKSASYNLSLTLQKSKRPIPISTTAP", "assay": "holdup assay", "design": "key: below the threshold = too weak to quantify, mostly under pKd 3.1 to 4", "details": "plain residues with an end cap or a label only (N-terminal biotin on a linker: ado-ado)", "values": [{"binder": "SGSLKLMTTV", "note": "[DACT1, Q9NYF0]", "pKd": "below the threshold"}]}, {"molecular_target": "T3, LIN7A, O14910", "T3 sequence (O14910 103-200, limits assumed, looked up)": "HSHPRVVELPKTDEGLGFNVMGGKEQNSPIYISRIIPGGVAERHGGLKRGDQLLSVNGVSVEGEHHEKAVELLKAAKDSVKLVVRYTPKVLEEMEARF", "assay": "holdup assay", "design": "key: below the threshold = too weak to quantify, mostly under pKd 3.1 to 4", "details": "plain residues with an end cap or a label only (N-terminal biotin on a linker: ado-ado)", "values": [{"binder": "SGSLKLMTTV", "note": "[DACT1, Q9NYF0]", "pKd": 3.68}]}, {"molecular_target": "IL16_1, Q14005", "sequence (Q14005 210-306)": "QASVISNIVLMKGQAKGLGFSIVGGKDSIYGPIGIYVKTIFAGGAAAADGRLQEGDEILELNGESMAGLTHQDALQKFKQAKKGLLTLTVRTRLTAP", "assay": "holdup assay", "design": "key: below the threshold = too weak to quantify, mostly under pKd 3.1 to 4", "details": "plain residues with an end cap or a label only (N-terminal biotin on a linker: ado-ado)", "values": [{"binder": "SGSLKLMTTV", "note": "[DACT1, Q9NYF0]", "pKd": "below the threshold"}]}, {"molecular_target": "TJP1_2, Q07157", "sequence (Q07157 181-274)": "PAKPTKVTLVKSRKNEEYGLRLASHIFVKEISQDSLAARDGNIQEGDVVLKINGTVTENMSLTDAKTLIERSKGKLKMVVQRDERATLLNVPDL", "assay": "holdup assay", "design": "key: below the threshold = too weak to quantify, mostly under pKd 3.1 to 4", "details": "plain residues with an end cap or a label only (N-terminal biotin on a linker: ado-ado)", "values": [{"binder": "SGSLKLMTTV", "note": "[DACT1, Q9NYF0]", "pKd": "below the threshold"}]}, {"molecular_target": "GORASP2, Q9H8Y8", "assay": "holdup assay", "design": "key: below the threshold = too weak to quantify, mostly under pKd 3.1 to 4", "details": "plain residues with an end cap or a label only (N-terminal biotin on a linker: ado-ado)", "values": [{"binder": "SGSLKLMTTV", "note": "[DACT1, Q9NYF0]", "pKd": 4.32}]}, {"molecular_target": "DLG1_3, Q12959", "assay": "holdup assay", "design": "key: below the threshold = too weak to quantify, mostly under pKd 3.1 to 4", "details": "plain residues with an end cap or a label only (N-terminal biotin on a linker: ado-ado)", "values": [{"binder": "SGSLKLMTTV", "note": "[DACT1, Q9NYF0]", "pKd": 3.55}]}, {"molecular_target": "T4, ARHGEF11, O15085", "T4 sequence (O15085 42-136, limits assumed, looked up)": "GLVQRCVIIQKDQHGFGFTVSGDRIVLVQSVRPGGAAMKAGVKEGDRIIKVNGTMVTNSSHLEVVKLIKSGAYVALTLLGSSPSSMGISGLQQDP", "assay": "holdup assay", "design": "key: below the threshold = too weak to quantify, mostly under pKd 3.1 to 4", "details": "plain residues with an end cap or a label only (N-terminal biotin on a linker: ado-ado)", "values": [{"binder": "SGSLKLMTTV", "note": "[DACT1, Q9NYF0]", "pKd": 4.71}]}, {"molecular_target": "T5, RADIL, Q96JH8", "T5 sequence (Q96JH8 971-1071, limits assumed, looked up)": "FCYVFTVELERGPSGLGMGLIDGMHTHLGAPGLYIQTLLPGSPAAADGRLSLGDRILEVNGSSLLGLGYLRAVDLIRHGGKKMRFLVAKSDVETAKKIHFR", "assay": "holdup assay", "design": "key: below the threshold = too weak to quantify, mostly under pKd 3.1 to 4", "details": "plain residues with an end cap or a label only (N-terminal biotin on a linker: ado-ado)", "values": [{"binder": "SGSLKLMTTV", "note": "[DACT1, Q9NYF0]", "pKd": 4.15}]}, {"molecular_target": "TJP2_1, Q9UDY2", "sequence (Q9UDY2 24-128)": "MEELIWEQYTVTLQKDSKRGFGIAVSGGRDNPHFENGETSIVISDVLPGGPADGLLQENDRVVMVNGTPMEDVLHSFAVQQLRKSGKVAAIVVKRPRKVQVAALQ", "assay": "holdup assay", "design": "key: below the threshold = too weak to quantify, mostly under pKd 3.1 to 4", "details": "plain residues with an end cap or a label only (N-terminal biotin on a linker: ado-ado)", "values": [{"binder": "SGSLKLMTTV", "note": "[DACT1, Q9NYF0]", "pKd": 3.58}]}, {"molecular_target": "T6, SIPA1L2, Q9P2F8", "T6 sequence (Q9P2F8 945-1036, limits assumed, looked up)": "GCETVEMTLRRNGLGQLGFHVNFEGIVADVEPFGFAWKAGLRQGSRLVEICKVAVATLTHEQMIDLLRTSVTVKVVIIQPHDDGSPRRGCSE", "assay": "holdup assay", "design": "key: below the threshold = too weak to quantify, mostly under pKd 3.1 to 4", "details": "plain residues with an end cap or a label only (N-terminal biotin on a linker: ado-ado)", "values": [{"binder": "SGSLKLMTTV", "note": "[DACT1, Q9NYF0]", "pKd": "below the threshold"}]}, {"molecular_target": "MAGI1_2, Q96QZ7", "sequence (Q96QZ7 456-580)": "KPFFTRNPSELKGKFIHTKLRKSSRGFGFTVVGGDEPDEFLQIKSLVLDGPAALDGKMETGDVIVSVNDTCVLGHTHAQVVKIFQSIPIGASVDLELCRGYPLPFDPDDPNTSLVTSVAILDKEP", "assay": "holdup assay", "design": "key: below the threshold = too weak to quantify, mostly under pKd 3.1 to 4", "details": "plain residues with an end cap or a label only (N-terminal biotin on a linker: ado-ado)", "values": [{"binder": "SGSLKLMTTV", "note": "[DACT1, Q9NYF0]", "pKd": 5.1}]}, {"molecular_target": "SCRIB_2, Q14160", "sequence (Q14160 857-960)": "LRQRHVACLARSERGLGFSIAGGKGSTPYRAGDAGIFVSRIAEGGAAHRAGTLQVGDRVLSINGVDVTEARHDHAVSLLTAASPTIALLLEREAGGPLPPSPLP", "assay": "holdup assay", "design": "key: below the threshold = too weak to quantify, mostly under pKd 3.1 to 4", "details": "plain residues with an end cap or a label only (N-terminal biotin on a linker: ado-ado)", "values": [{"binder": "SGSLKLMTTV", "note": "[DACT1, Q9NYF0]", "pKd": 3.69}]}, {"molecular_target": "T7, MPP6, Q9NZW5", "T7 sequence (Q9NZW5 125-219, limits assumed, looked up)": "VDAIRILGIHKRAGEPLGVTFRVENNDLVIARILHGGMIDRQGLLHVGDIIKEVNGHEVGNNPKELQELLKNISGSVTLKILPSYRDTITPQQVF", "assay": "holdup assay", "design": "key: below the threshold = too weak to quantify, mostly under pKd 3.1 to 4", "details": "plain residues with an end cap or a label only (N-terminal biotin on a linker: ado-ado)", "values": [{"binder": "SGSLKLMTTV", "note": "[DACT1, Q9NYF0]", "pKd": "below the threshold"}]}, {"molecular_target": "AHNAK1, Q09666", "sequence (Q09666 4-100)": "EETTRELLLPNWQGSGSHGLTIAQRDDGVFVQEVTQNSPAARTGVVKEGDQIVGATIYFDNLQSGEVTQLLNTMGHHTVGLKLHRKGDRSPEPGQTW", "assay": "holdup assay", "design": "key: below the threshold = too weak to quantify, mostly under pKd 3.1 to 4", "details": "plain residues with an end cap or a label only (N-terminal biotin on a linker: ado-ado)", "values": [{"binder": "SGSLKLMTTV", "note": "[DACT1, Q9NYF0]", "pKd": "below the threshold"}]}, {"molecular_target": "PDLIM1, O00151", "sequence (O00151 1-87)": "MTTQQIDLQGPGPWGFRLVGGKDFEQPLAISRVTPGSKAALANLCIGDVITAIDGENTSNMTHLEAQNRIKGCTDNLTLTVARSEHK", "assay": "holdup assay", "design": "key: below the threshold = too weak to quantify, mostly under pKd 3.1 to 4", "details": "plain residues with an end cap or a label only (N-terminal biotin on a linker: ado-ado)", "values": [{"binder": "SGSLKLMTTV", "note": "[DACT1, Q9NYF0]", "pKd": "below the threshold"}]}, {"molecular_target": "FRMPD3, Q5JV73", "sequence (Q5JV73 12-100)": "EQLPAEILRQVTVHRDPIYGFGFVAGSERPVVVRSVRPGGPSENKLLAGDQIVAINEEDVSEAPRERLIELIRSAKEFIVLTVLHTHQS", "assay": "holdup assay", "design": "key: below the threshold = too weak to quantify, mostly under pKd 3.1 to 4", "details": "plain residues with an end cap or a label only (N-terminal biotin on a linker: ado-ado)", "values": [{"binder": "SGSLKLMTTV", "note": "[DACT1, Q9NYF0]", "pKd": "below the threshold"}]}, {"molecular_target": "DLG4_2, P78352", "sequence (P78352 155-259)": "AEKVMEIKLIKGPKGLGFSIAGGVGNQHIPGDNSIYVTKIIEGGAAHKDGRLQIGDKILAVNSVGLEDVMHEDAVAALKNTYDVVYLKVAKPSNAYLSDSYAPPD", "assay": "holdup assay", "design": "key: below the threshold = too weak to quantify, mostly under pKd 3.1 to 4", "details": "plain residues with an end cap or a label only (N-terminal biotin on a linker: ado-ado)", "values": [{"binder": "SGSLKLMTTV", "note": "[DACT1, Q9NYF0]", "pKd": 5.22}]}, {"molecular_target": "T8, GRIP1_5, Q9Y3R0", "T8 sequence (Q9Y3R0 568-668, limits assumed, looked up)": "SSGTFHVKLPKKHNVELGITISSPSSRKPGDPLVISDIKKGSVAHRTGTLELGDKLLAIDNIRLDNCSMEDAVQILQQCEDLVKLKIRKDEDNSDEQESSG", "assay": "holdup assay", "design": "key: below the threshold = too weak to quantify, mostly under pKd 3.1 to 4", "details": "plain residues with an end cap or a label only (N-terminal biotin on a linker: ado-ado)", "values": [{"binder": "SGSLKLMTTV", "note": "[DACT1, Q9NYF0]", "pKd": "below the threshold"}]}, {"molecular_target": "GOPC, Q9HD26", "assay": "holdup assay", "design": "key: below the threshold = too weak to quantify, mostly under pKd 3.1 to 4", "details": "plain residues with an end cap or a label only (N-terminal biotin on a linker: ado-ado)", "values": [{"binder": "SGSLKLMTTV", "note": "[DACT1, Q9NYF0]", "pKd": 3.95}]}, {"molecular_target": "T9, SHANK1, Q9Y566", "T9 sequence (Q9Y566 658-767, limits assumed, looked up)": "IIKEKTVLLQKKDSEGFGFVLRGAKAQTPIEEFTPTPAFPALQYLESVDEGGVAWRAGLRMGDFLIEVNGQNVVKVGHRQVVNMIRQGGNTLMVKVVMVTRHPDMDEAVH", "assay": "holdup assay", "design": "key: below the threshold = too weak to quantify, mostly under pKd 3.1 to 4", "details": "plain residues with an end cap or a label only (N-terminal biotin on a linker: ado-ado)", "values": [{"binder": "SGSLKLMTTV", "note": "[DACT1, Q9NYF0]", "pKd": "below the threshold"}]}, {"molecular_target": "DLG4_3, P78352", "sequence (P78352 306-403)": "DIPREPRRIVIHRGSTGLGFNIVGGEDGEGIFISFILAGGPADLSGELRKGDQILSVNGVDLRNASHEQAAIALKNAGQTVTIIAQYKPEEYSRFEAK", "assay": "holdup assay", "design": "key: below the threshold = too weak to quantify, mostly under pKd 3.1 to 4", "details": "plain residues with an end cap or a label only (N-terminal biotin on a linker: ado-ado)", "values": [{"binder": "SGSLKLMTTV", "note": "[DACT1, Q9NYF0]", "pKd": 4.26}]}, {"molecular_target": "MAGI3_2, Q5TCQ9", "sequence (Q5TCQ9 398-503)": "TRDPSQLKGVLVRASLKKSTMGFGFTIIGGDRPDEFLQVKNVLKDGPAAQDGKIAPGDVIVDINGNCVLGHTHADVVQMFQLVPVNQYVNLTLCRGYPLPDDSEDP", "assay": "holdup assay", "design": "key: below the threshold = too weak to quantify, mostly under pKd 3.1 to 4", "details": "plain residues with an end cap or a label only (N-terminal biotin on a linker: ado-ado)", "values": [{"binder": "SGSLKLMTTV", "note": "[DACT1, Q9NYF0]", "pKd": 5.21}]}, {"molecular_target": "GRASP, Q7Z6J2", "sequence (Q7Z6J2 96-193)": "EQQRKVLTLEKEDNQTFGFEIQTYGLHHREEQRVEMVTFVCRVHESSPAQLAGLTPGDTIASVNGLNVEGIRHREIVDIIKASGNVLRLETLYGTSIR", "assay": "holdup assay", "design": "key: below the threshold = too weak to quantify, mostly under pKd 3.1 to 4", "details": "plain residues with an end cap or a label only (N-terminal biotin on a linker: ado-ado)", "values": [{"binder": "SGSLKLMTTV", "note": "[DACT1, Q9NYF0]", "pKd": 4.02}]}]}
